Source: FireProtDB (doi:10.1073/pnas.84.13.4441)

B1: Tryptophan synthase alpha chain, P0A877 (parent)
chain: MERYESLFAQLKERKEGAFVPFVTLGDPGIEQSLKIIDTLIEAGADALELGIPFSDPLADGPTIQNATLRAFAAGVTPAQCFEMLALIRQKHPTIPIGLLMYANLVFNKGIDEFYAQCEKVGVDSVLVADVPVEESAPFRQAALRHNVAPIFICPPNADDDLLRQIASYGRGYTYLLSRAGVTGAENRAALPLNHLVAKLKEYNAAPPLQGFGISAPDQVKAAIDAGAAGAISGSAIVKIIEQHINEPEKMLAALKVFVQPMKAATRS

Variants of: B1
Conditions: Escherichia coli (strain K12), 25 °C, GdnHCl, CD, Potassium phosphate 20 mM, reversible: yes, structure 1WQ5, whole UniProt chain shown

Variant	ddG of mutation (higher = less stable) (pH 7) [kcal/mol]	unfolding free energy (pH 7) [kcal/mol]	ddG of mutation (higher = less stable) (pH 9) [kcal/mol]	unfolding free energy (pH 9) [kcal/mol]
E49I	-0.46	18.6	-1.24	19.2
E49S	0.59	17.6	-0.09	18.1
E49N			-0.27	18.2
E49T	0.62	17.5	0.26	17.7
E49F	0.86	17.3		
E49P	0	18.2	-0.8	18.8
E49V	-0.14	18.3		
E49L	-0.44	18.6	-1.04	19
E49K	-0.2	18	-0.39	18.4
E49H	-0.33	18.5	-0.67	18.6
E49D	0.8	17.4	0.03	17.9
E49Y	0.17	18	-0.26	18.2
E49G	-0.08	18.2	-0.6	18.6
E49A	0.08	18.1	-0.59	18.6
E49W	0.97	17.2	1.1	16.9
E49Q	0.23	17.9		
E49C	-0.01	18.2	0.13	17.8
E49M	0.05	18.1	-0.52	18.5
